According to article PMC5045412, “Inhibition of pro-HGF activation by SRI31215, a novel approach to block oncogenic HGF/MET signaling” (Oncotarget, 2016):

Legend:
DiFi cells = DiFi cells co-cultured with WI38 fibroblasts, immunoblotting; format: cell-based; details: gefitinib 0.5 μM
Description: Figure 7 Fibroblasts protect DiFi cells from EGFRi in an HGF-dependent manner DiFi cells were treated with gefitinib (0.5 μM) alone or were co-cultured with WI38 fibroblasts (FIB) in the absence or the presence of SRI 31215 (10 μM) or JNJ38877605 (1 μM). The DiFi cell lysates were isolated after 4 or 24 hours as indicated and examined for the expression of pERK and total ERK, pEGFR and total EGFR, cleaved PARP, β-catenin gelsolin and β-actin by immunoblotting.
Immunoblotting was performed using standard procedures. Membranes were blocked with 5% non-fat milk for 1 hour at RT, and incubated with primary antibodies overnight at 4°C. Primary antibodies used were anti-HGF (R&D Systems), anti-MET, anti-p-MET, anti-p-GAB1, anti-p-AKT, anti-p-ERK1/2, anti-vimentin (Cell Signaling Technology), anti-p-STAT3 (Upstate Cell Signaling Solutions), anti-E-cadherin (BD Transduction Laboratories), anti-β-actin (Sigma). Following washing with TBS-T buffer, membranes were incubated with horseradish peroxidase-conjugated secondary antibodies for 1 hour and then washed with TBS-T. Immunoblots were developed using the chemiluminescent detection system with ECL (Amersham). Protein loading was normalized by probing blots for the expression of β-actin.

RKO cells = test: Clonogenic growth and viability of HGF-producing RKO cells with EGFR inhibitors; format: cell-based; details: RKO cells, SRI 31215 10 μM, JNJ 38877605 1 μM, HAI-1 20 nM
Description: Figure 5 Inhibitors of HGF/MET signaling prevent the innate and acquired resistance to cetuximab A. and B. RKO cells were treated with cetuximab (50 μg/ml) (A) of gefitinib (B) alone, or in combination with SRI 31215 (10 μM), JNJ 38877605 (1 μM) or recombinant HAI-1 (20 nM) as indicated and clonogenic growth was monitored as described in Materials and Methods. C. and D. Caco2 cells were treated with cetuximab or gefitinib alone or in the presence of CM from fibroblasts and SRI 31215 (10 μM) or JNJ 38877605 (1 μM) as indicated. #: p<0.05, compared to control (CTRL); NS: not significant.
Cell titer-glo luminescent cell viability assay kit was purchased from Promega. […] For clonogenic assay, cells were seeded in 6-well plates at a density of 400 cells per well, serum starved overnight, and treated as indicated. After colony formation (8-12 days), cells were stained with crystal violet and the number of colonies was determined using ImageQuantTL (GE Health Care Life Sciences).
Supplementary Figure S3: Inhibition of HGF/MET signaling sensitizes HGF-producing RKO colon cancer cells to gefitinib. A. RKO cells (HGF+) and B. HT29 (HGF-) cells were treated with gefitinib (5 μM) in the absence or the presence of SRI 31215 (10 μM) or JNJ 38877605 (1 μM) as indicated and viability was determined 24 and 72 hours after treatment. # indicates statistical significance compared to samples treated with gefitinib alone as determined by Students’ t-test (p<0.05).
(also on this page, place not known: www.impactjournals.com/oncotarget/ Oncotarget, Materials 2016 Supplementary (HGF +) (HGF -)) […]

recombinant human HGFA = target: T1, recombinant human HGFA (Homo sapiens, UniProt Q04756); test: Proteolytic activation of pro-HGF by HGFA (immunoblotting); format: biochemical; details: SRI 31215 10 μM, HAI-1 20 nM, HGFA 1 nM
T1 construct: purchased R&D Systems
T1 sequence (Q04756 408-655 limits assumed): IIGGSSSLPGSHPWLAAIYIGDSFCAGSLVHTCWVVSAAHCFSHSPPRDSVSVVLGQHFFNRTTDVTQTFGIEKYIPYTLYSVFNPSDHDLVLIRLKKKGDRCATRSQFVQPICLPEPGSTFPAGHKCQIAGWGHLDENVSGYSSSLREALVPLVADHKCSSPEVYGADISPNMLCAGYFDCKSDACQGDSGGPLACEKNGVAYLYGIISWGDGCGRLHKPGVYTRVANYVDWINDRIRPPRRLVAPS
T1 sequence (Q04756 373-407 partner limits assumed): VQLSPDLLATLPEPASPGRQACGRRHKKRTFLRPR
Description: Recombinant human HAI-1, recombinant human HGFA, and recombinant human HGF propeptide (pro-HGF) were purchased from R&D Systems. SRI 31215 (10 μM) or recombinant human HAI-1 (20 nM) were mixed with activated recombinant human HGFA pro-peptide (1nM) in TNC buffer (pH 8.0) and incubated at room temperature for 30 minutes. Recombinant human pro-HGF (40 ng) was added and incubated at 37°C for 1 hour. The reaction was stopped by SDS-PAGE gel sample buffer and samples were boiled and separated by 12% PAGE. Proteins were transferred onto nitrocellulose membrane, blocked with 5% milk and immunoblotted using antibodies that recognize pro-HGF as well as α and β chains of activated HGF.

Molecule: COc1cc2ncnc(Nc3ccc(F)c(Cl)c3)c2cc1OCCCN1CCOCC1 [Gefitinib]
- levels of β-catenin (DiFi cells): reduced

B1: HAI-1: recombinant human HAI-1, endogenous inhibitor of HGF activation, positive control (protein, UniProt O43278 36-529, looked up)
Kunitz-type protease …: GPPPAPPGLPAGADCLNSFTAGVPGFVLDTNASVSNGATFLESPTVRRGWDCVRACCTTQNCNLALVELQPDRGEDAIAACFLINCLYEQNFVCKFAPREGFINYLTREVYRSYRQLRTQGFGGSGIPKAWAGIDLKVQPQEPLVLKDVENTDWRLLRGDTDVRVERKDPNQVELWGLKEGTYLFQLTVTSSDHPEDTANVTVTVLSTKQTEDYCLASNKVGRCRGSFPRWYYDPTEQICKSFVYGGCLGNKNNYLREEECILACRGVQGGPLRGSSGAQATFPQGPSMERRHPVCSGTCQPTQFRCSNGCCIDSFLECDDTPNCPDASDEAACEKYTSGFDELQRIHFPSDKGHCVDLPDTGLCKESIPRWYYNPFSEHCARFTYGGCYGNKNNFEEEQQCLESCRGISKKDVFGLRREIPIPSTGSVEMAVAVFLVICIVVVVAILGYCFFKNQRKDFHGHHHHPPPTPASSTVSTTEDTEHLVYNHTTRPL
- clonogenic growth, agent alone (RKO cells): did not impact
- clonogenic growth, combination with cetuximab (RKO cells; cetuximab 50 μg/ml): significant decrease
- HGFA-induced cleavage of pro-HGF into alpha and beta chains (recombinant human HGFA): inhibited
